Experimental data published in patent publication US20190038762A1 (Takeda / Millennium, published 2019).

Biological target: T1, guanylyl cyclase C (GCC), myc-tagged, full-length, expressed on HEK293-GCC#2 cells (UniProt P25092 24-1073, limits assumed)
T1 construct: whole, on cells; also called GCC antigen; GCC-expressing cells
Test: indirect immunofluorescence flow cytometry on HEK293-GCC#2 cells
Procedure: HEK293-GCC#2 and vector control cells were grown in standard cell culture medium supplemented with 10% fetal bovine serum (FBS). […] This centrifugation-wash step was repeated once more before cells were re-suspended at a concentration of 5×10⁶ cells/mL in 3% FBS/PBS, and added to the experimental wells of a V-bottom 96-well plate in 100 μL aliquots (˜500,000 cells). The plate was centrifuged for 5 min at 1200 rpm.
Following centrifugation, supernatant was removed from each well and replaced with 50 μL of primary antibody-drug conjugate solution. […] The 96-well dish was covered and incubated at 4° C. (on ice) for 1 hour before solutions were removed from the wells and the cells were washed twice in 100 μL of 3% FBS/PBS (without Ca²⁺ or Mg²⁺).
After completion of the second wash, 50 μL of secondary antibody solution was added to each experimental well, and the covered 96-well plate was placed at 4° C. (on ice) for 1 hour. The plate was then centrifuged, and the supernatant was replaced with 100 μL of 3% FBS/PBS (without Ca²⁺ or Mg²⁺). This centrifugation-wash step was repeated for a total of two cycles. The cells were finally reconstituted in 200 μL of PBS (without Ca²⁺ or Mg²⁺) and loaded onto the BD FACS Canto flow cytometer (BD Biosciences, Franklin Lakes, N.J.). Data were analyzed using FACS II Canto system software and the appropriate filter settings.

T1 sequence (P25092 24-1073 limits assumed): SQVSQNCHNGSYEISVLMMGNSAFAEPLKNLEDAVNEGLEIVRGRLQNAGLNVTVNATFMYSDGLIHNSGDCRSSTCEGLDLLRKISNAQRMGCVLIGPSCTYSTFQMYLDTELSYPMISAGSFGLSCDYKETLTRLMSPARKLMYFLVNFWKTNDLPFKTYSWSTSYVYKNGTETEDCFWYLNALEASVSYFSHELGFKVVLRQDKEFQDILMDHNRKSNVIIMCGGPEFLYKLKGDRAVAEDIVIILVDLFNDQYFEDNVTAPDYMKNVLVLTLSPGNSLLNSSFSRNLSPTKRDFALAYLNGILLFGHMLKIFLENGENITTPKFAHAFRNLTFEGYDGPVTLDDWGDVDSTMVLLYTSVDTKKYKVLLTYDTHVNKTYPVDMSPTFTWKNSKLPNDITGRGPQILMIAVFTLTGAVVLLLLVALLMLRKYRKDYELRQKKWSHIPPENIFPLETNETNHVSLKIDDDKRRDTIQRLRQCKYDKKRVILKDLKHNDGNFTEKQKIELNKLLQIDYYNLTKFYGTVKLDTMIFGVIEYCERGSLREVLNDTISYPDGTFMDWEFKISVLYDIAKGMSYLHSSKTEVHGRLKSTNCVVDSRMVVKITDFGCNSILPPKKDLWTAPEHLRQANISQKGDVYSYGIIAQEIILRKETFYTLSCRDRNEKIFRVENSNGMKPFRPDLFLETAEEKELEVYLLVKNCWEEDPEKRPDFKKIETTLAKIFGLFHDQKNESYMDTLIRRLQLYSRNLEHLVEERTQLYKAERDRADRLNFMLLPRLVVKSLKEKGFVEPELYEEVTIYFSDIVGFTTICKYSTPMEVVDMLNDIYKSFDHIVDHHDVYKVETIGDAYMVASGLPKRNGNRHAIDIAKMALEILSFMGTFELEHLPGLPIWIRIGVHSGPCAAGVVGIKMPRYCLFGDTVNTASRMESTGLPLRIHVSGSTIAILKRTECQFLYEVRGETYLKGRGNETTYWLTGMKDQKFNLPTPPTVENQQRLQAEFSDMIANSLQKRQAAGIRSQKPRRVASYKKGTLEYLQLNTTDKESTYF

Affinity: 35 ng/mL
B1: 5F9 antibody (anti-GCC human monoclonal antibody 5F9, hIgG1/hKappa) (antibody, V domains shown)
VH: QVQLQQWGAGLLKPSETLSLTCAVFGGSFSGYYWSWIRQPPGKGLEWIGEINHRGNTNDNPSLKSRVTISVDTSKNQFALKLSSVTAADTAVYYCARERGYTYGNFDHWGQGTLVTVSS
VL: EIVMTQSPATLSVSPGERATLSCRASQSVSRNLAWYQQKPGQAPRLLIYGASTRATGIPARFSGSGSGTEFTLTIGSLQSEDFAVYYCQQYKTWPRTFGQGTNVEIKR
notes: The hybridoma antibody was IgG2, kappa; also called hu5F9; Human 5F9 antibody
